Values of other authors, collected in paper PMC12206923.

Target: dimeric IL-2 receptor (Homo sapiens) (UniProt P14784)
Chain of UniProt P14784 (P14784 27-240, chain 1 of 2): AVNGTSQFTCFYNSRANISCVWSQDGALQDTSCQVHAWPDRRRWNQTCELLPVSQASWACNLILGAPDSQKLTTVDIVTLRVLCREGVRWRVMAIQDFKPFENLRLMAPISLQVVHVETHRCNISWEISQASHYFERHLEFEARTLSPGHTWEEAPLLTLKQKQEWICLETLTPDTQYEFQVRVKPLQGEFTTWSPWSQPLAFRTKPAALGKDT
Chain of UniProt P14784 (P31785 23-262, chain 2 of 2, further chain): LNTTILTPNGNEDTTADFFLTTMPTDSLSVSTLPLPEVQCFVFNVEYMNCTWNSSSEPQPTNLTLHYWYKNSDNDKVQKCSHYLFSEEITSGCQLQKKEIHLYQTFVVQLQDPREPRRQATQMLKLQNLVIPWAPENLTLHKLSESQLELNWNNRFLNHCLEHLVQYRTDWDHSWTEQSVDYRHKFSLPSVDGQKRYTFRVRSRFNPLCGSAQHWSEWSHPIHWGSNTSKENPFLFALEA

Chain of IL-2 (P60568 21-153): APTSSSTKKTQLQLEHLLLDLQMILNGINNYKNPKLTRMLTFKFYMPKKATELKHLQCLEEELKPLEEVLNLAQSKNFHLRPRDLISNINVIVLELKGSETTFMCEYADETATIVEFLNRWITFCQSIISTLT

Kd: 1 nM
Substance: IL-2 (from UniProt P60568)
